Bridges are numbered along the chain shown (N, C = ends). Primed or numbered codes have the meaning given here. [ ]: non-standard residue; d: D form. Pro(4NHCOPhe)″ = 4-benzamido-L-proline, (2S)-4-benzoylamino-pyrrolidine-2-carboxylic acid; Nle = CCCC[C@H](N)C(=O)O
T1: Chymase, from human skin (human, UniProt P23946 22-247)
T1 construct: purified natural enzyme, bought
T1 sequence (looked up): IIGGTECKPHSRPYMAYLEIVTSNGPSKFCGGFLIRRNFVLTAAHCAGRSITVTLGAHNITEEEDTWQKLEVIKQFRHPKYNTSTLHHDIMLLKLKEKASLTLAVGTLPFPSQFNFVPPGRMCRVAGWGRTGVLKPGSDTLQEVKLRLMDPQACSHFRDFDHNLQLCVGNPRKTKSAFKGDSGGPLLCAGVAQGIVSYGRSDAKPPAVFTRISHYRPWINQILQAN

B1: Example 122 (peptide)
peptide: XCTASIPPQCY
HELM: PEPTIDE1{[Nle].C.T.A.S.I.P.P.Q.C.Y.[dP].F}$PEPTIDE1,PEPTIDE1,2:R3-10:R3|PEPTIDE1,PEPTIDE1,1:R1-13:R2$$$V2.0
SMILES: CCCC[C@@H]1NC(=O)[C@H](Cc2ccccc2)NC(=O)[C@H]2CCCN2C(=O)[C@H](Cc2ccc(O)cc2)NC(=O)[C@@H]2CSSC[C@H](NC1=O)C(=O)N[C@@H]([C@@H](C)O)C(=O)N[C@@H](C)C(=O)N[C@@H](CO)C(=O)N[C@@H]([C@@H](C)CC)C(=O)N1CCC[C@H]1C(=O)N1CCC[C@H]1C(=O)N[C@@H](CCC(N)=O)C(=O)N2
B2: Example 98 (peptide)
peptide: XCTASIPPQCX
HELM: PEPTIDE1{[Nle].C.T.A.S.I.P.P.Q.C.[Phg].[dP].P}$PEPTIDE1,PEPTIDE1,2:R3-10:R3|PEPTIDE1,PEPTIDE1,1:R1-13:R2$$$V2.0
SMILES: CCCC[C@@H]1NC(=O)[C@@H]2CCCN2C(=O)[C@H]2CCCN2C(=O)[C@H](c2ccccc2)NC(=O)[C@@H]2CSSC[C@H](NC1=O)C(=O)N[C@@H]([C@@H](C)O)C(=O)N[C@@H](C)C(=O)N[C@@H](CO)C(=O)N[C@@H]([C@@H](C)CC)C(=O)N1CCC[C@H]1C(=O)N1CCC[C@H]1C(=O)N[C@@H](CCC(N)=O)C(=O)N2
notes: also called Ex. 98
B3: Example 136 (peptide)
peptide: XCTASIPPQCX
HELM: PEPTIDE1{[Nle].C.T.A.S.I.P.P.Q.C.[Phg].[dP].P}$PEPTIDE1,PEPTIDE1,2:R3-10:R3|PEPTIDE1,PEPTIDE1,1:R1-13:R2$$$V2.0
SMILES: CCCC[C@@H]1NC(=O)[C@@H]2CCCN2C(=O)[C@H]2CCCN2C(=O)[C@H](c2ccccc2)NC(=O)[C@@H]2CSSC[C@H](NC1=O)C(=O)N[C@@H]([C@@H](C)O)C(=O)N[C@@H](C)C(=O)N[C@@H](CO)C(=O)N[C@@H]([C@@H](C)CC)C(=O)N1CCC[C@H]1C(=O)N1CCC[C@H]1C(=O)N[C@@H](CCC(N)=O)C(=O)N2
notes: also called Ex. 136
B4: Example 140 (peptide)
peptide: XCTASXPPQCY
HELM: PEPTIDE1{[Nle].C.T.A.S.[O=C([C@@H](N[*:1])C1CCCCC1)[*:2]].P.P.Q.C.Y.[dP].P}$PEPTIDE1,PEPTIDE1,2:R3-10:R3|PEPTIDE1,PEPTIDE1,1:R1-13:R2$$$V2.0
SMILES: CCCC[C@@H]1NC(=O)[C@@H]2CCCN2C(=O)[C@H]2CCCN2C(=O)[C@H](Cc2ccc(O)cc2)NC(=O)[C@@H]2CSSC[C@H](NC1=O)C(=O)N[C@@H]([C@@H](C)O)C(=O)N[C@@H](C)C(=O)N[C@@H](CO)C(=O)N[C@@H](C1CCCCC1)C(=O)N1CCC[C@H]1C(=O)N1CCC[C@H]1C(=O)N[C@@H](CCC(N)=O)C(=O)N2
notes: also called Ex. 140
B5: Example 99 (peptide)
peptide: XCTASIPPQCY
HELM: PEPTIDE1{[CCCCCC[C@H](N[*:1])C(=O)[*:2]].C.T.A.S.I.P.P.Q.C.Y.[dP].P}$PEPTIDE1,PEPTIDE1,2:R3-10:R3|PEPTIDE1,PEPTIDE1,1:R1-13:R2$$$V2.0
SMILES: CCCCCC[C@@H]1NC(=O)[C@@H]2CCCN2C(=O)[C@H]2CCCN2C(=O)[C@H](Cc2ccc(O)cc2)NC(=O)[C@@H]2CSSC[C@H](NC1=O)C(=O)N[C@@H]([C@@H](C)O)C(=O)N[C@@H](C)C(=O)N[C@@H](CO)C(=O)N[C@@H]([C@@H](C)CC)C(=O)N1CCC[C@H]1C(=O)N1CCC[C@H]1C(=O)N[C@@H](CCC(N)=O)C(=O)N2
notes: also called Ex. 99
B6: Example 167 (peptide)
peptide: XCTASIPPQCY
HELM: PEPTIDE1{[Nle].C.T.A.S.I.P.P.Q.C.Y.[dP].F}$PEPTIDE1,PEPTIDE1,2:R3-10:R3|PEPTIDE1,PEPTIDE1,1:R1-13:R2$$$V2.0
SMILES: CCCC[C@@H]1NC(=O)[C@H](Cc2ccccc2)NC(=O)[C@H]2CCCN2C(=O)[C@H](Cc2ccc(O)cc2)NC(=O)[C@@H]2CSSC[C@H](NC1=O)C(=O)N[C@@H]([C@@H](C)O)C(=O)N[C@@H](C)C(=O)N[C@@H](CO)C(=O)N[C@@H]([C@@H](C)CC)C(=O)N1CCC[C@H]1C(=O)N1CCC[C@H]1C(=O)N[C@@H](CCC(N)=O)C(=O)N2
notes: also called Ex. 167
B7: Example 169 (peptide)
peptide: XCTASXPPQCY
HELM: PEPTIDE1{[Nle].C.T.A.S.[CCCCCCCC[C@H](N[*:1])C(=O)[*:2]].P.P.Q.C.Y.[dP].Q}$PEPTIDE1,PEPTIDE1,2:R3-10:R3|PEPTIDE1,PEPTIDE1,1:R1-13:R2$$$V2.0
SMILES: CCCCCCCC[C@@H]1NC(=O)[C@H](CO)NC(=O)[C@H](C)NC(=O)[C@H]([C@@H](C)O)NC(=O)[C@@H]2CSSC[C@H](NC(=O)[C@H](CCC(N)=O)NC(=O)[C@@H]3CCCN3C(=O)[C@@H]3CCCN3C1=O)C(=O)N[C@@H](Cc1ccc(O)cc1)C(=O)N1CCC[C@@H]1C(=O)N[C@@H](CCC(N)=O)C(=O)N[C@@H](CCCC)C(=O)N2
notes: also called Ex. 169
B8: Example 146 (peptide)
peptide: XCTASIPPQCF
HELM: PEPTIDE1{[O=C([C@H](CCc1ccccc1)N[*:1])[*:2]].C.T.A.S.I.P.P.Q.C.F.[dP].P}$PEPTIDE1,PEPTIDE1,2:R3-10:R3|PEPTIDE1,PEPTIDE1,1:R1-13:R2$$$V2.0
SMILES: CC[C@H](C)[C@@H]1NC(=O)[C@H](CO)NC(=O)[C@H](C)NC(=O)[C@H]([C@@H](C)O)NC(=O)[C@@H]2CSSC[C@H](NC(=O)[C@H](CCC(N)=O)NC(=O)[C@@H]3CCCN3C(=O)[C@@H]3CCCN3C1=O)C(=O)N[C@@H](Cc1ccccc1)C(=O)N1CCC[C@@H]1C(=O)N1CCC[C@H]1C(=O)N[C@@H](CCc1ccccc1)C(=O)N2

The binders below were run against T2, Coagulation Factor Xa, from uman plasma (human, UniProt P00742 41-179; P00742 235-488, limits assumed) (assay: enzyme inhibition, pNA substrate).
T2 construct: purified natural enzyme, bought; also called FXa
T2 sequence (P00742 41-179 limits assumed, chain 1 of 2): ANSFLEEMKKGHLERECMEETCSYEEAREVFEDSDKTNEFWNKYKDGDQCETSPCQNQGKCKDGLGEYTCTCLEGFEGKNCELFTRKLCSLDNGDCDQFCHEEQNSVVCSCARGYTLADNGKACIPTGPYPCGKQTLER
T2 sequence (P00742 235-488 limits assumed, chain 2 of 2): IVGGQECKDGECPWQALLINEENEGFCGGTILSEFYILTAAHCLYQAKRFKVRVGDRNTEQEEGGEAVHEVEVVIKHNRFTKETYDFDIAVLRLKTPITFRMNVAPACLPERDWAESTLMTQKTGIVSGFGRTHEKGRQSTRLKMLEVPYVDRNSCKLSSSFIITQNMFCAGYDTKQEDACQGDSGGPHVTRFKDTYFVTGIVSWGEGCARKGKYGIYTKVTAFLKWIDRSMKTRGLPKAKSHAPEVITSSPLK

% inhibition at 100 µM [%]	Binder
19.6	B1
0	B2
0	B3
13.3	B4
0	B5
12.6	cyclo([Nle]CTASIP[Pro(4NHCOPhe)″]QCY[dP]P) (disulfide 2-10) [Example 138]
19.6	B6
13.3	B7

What follows are binders tested against T3, Urokinase from human urine (human, UniProt P00749 21-431, limits assumed) (assay: enzyme inhibition, pNA substrate).
T3 construct: purified natural enzyme, bought

% inhibition at 100 µM [%]	Binder
11.1	B1
0	B2
0	B3
10.4	B4
17.4	B5
0	B8
14.4	cyclo([Nle]CTASIP[Pro(4NHCOPhe)″]QCY[dP]P) (disulfide 2-10) [Example 138]
11.1	B6
10.4	B7

These binders were tested against T4, Trypsin, Iodination grade, from human pancreas (human, UniProt P07477 24-247) (assay: enzyme inhibition, pNA substrate).
T4 construct: purified natural enzyme, bought

% inhibition at 100 µM [%]	Binder
19	B1
0	B2
0	B3
10.8	B4
30.5	B5
12.2	cyclo([Nle]CTASIP[Pro(4NHCOPhe)″]QCY[dP]P) (disulfide 2-10) [Example 138]
19	B6
10.8	B7

Each binder was assayed against Thrombin, from Human Plasma, high activity (human, UniProt P00734 328-622) (assay: enzyme inhibition, pNA substrate).

% inhibition at 100 µM [%]	Binder
0	B1
20.6	B4
0	B5
11	B8
17.1	cyclo([Nle]CTASIP[Pro(4NHCOPhe)″]QCY[dP]P) (disulfide 2-10) [Example 138]
0	B6
20.6	B7

Each binder was assayed against T5, Chymotrypsin, from human pancreas (human, UniProt P17538 19-263) (assay: enzyme inhibition, pNA substrate).
T5 construct: purified natural enzyme, bought
T5 sequence (P17538 19-263): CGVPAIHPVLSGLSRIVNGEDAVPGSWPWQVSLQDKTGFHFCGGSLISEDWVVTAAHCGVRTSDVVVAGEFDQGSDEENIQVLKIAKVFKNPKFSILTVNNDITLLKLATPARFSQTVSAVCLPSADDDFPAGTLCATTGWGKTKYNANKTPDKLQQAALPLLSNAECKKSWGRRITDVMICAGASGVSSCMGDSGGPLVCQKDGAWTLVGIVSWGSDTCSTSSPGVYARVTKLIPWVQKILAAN

% inhibition at 100 µM [%]	Binder
67.9	B3
79.6	B4
87	B8
77.1	cyclo([Nle]CTASIP[Pro(4NHCOPhe)″]QCY[dP]P) (disulfide 2-10) [Example 138]
60.2	B6
79.6	B7

These binders were tested against T1, Chymase, from human skin (assay: enzyme inhibition, pNA substrate).

% inhibition at 100 µM [%]	Binder
0	B2
0	B3
0	B4
0	B5
0	B8
0	B7

Each binder was assayed against T6, Tryptase, from human lung (human, UniProt Q15661 31-275, limits assumed) (assay: enzyme inhibition, pNA substrate).
T6 construct: purified natural enzyme, bought
T6 sequence (Q15661 31-275 limits assumed): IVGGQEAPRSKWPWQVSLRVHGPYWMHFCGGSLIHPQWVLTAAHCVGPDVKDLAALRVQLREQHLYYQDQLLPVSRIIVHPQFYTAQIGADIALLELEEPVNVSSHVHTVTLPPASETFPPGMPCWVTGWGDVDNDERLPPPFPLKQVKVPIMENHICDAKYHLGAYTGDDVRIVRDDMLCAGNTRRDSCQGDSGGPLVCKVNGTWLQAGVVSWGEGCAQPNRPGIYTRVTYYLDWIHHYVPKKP

% inhibition at 100 µM [%]	Binder
0	B2
0	B3
0	B5
22	B8
0	cyclo([Nle]CTASIP[Pro(4NHCOPhe)″]QCY[dP]P) (disulfide 2-10) [Example 138]
